# Substitutions are numbered along the chain they refer to. “And” between values parts separate entries of the source, which are not always exact repeats. Identical values can stand only once.
# B1: 28S31S54V59D / 101V (antibody, V domains shown)
# VH: EVQLVESGGGLVQPGGSLRLSCAASGYSFTSYYMNWVRQAPGKGLEWIGDINPVTGDTDYNADFKRRFTFSLDTSKSTAYLQMNSLRAEDTAVYYCTREGPSFAYWGQGTLVTVSS
# VL: DIQLTQSPSSLSASVGDRVTITCRSSQTIVHSNGDTYLEWYQQKPGKAPNLLIYKVSNRFSGVPSRFSGSGSGTDFTLTISSLQPEDFATYYCFQGSHVPVTFGQGTKVEIK
# notes: KCD119 TAF variant; full antibody captured on protein A
# B2: 31S54V59D / 32W60W101V (antibody, V domains shown)
# VH: B1 VH with S28T
# VL: B1 VL with S32W, F60W
# notes: as for B1
# B3: 54V59D / 32W60W101V (antibody, V domains shown)
# VH: B1 VH with S28T, S31D
# VL: B1 VL with S32W, F60W
# notes: as for B1
# B4: 54I59D / 32W60W101V (antibody, V domains shown)
# VH: B1 VH with S28T, S31D, V54I
# VL: B1 VL with S32W, F60W
# notes: as for B1
# B5: 34I54I59D / 32W60W101V (antibody, V domains shown)
# VH: B1 VH with S28T, S31D, M34I, V54I
# VL: B1 VL with S32W, F60W
# notes: as for B1
# B6: 54I59D / 32W54S101V (antibody, V domains shown)
# VH: B1 VH with S28T, S31D, V54I
# VL: B1 VL with S32W, Y54S
# notes: Light label printed 32W545101V, read as 32W54S101V; also called 54I59D / 32W545101V
# B7: 31S54I59D / 54G101V (antibody, V domains shown)
# VH: B1 VH with S28T, V54I
# VL: B1 VL with Y54G
# notes: as for B1
# B8: 31S34I54I59D / 32W60W101V (antibody, V domains shown)
# VH: B1 VH with S28T, M34I, V54I
# VL: B1 VL with S32W, F60W
# notes: as for B1
# B9: 31S54I59D84T / 32W60W101V (antibody, V domains shown)
# VH: B1 VH with S28T, V54I, N84T
# VL: B1 VL with S32W, F60W
# notes: as for B1
# B10: 54I59D / 50I60W101V (antibody, V domains shown)
# VH: B1 VH with S28T, S31D, V54I
# VL: B1 VL with N50I, F60W
# notes: as for B1
# B11: 54I59D / 54S60W101V (antibody, V domains shown)
# VH: B1 VH with S28T, S31D, V54I
# VL: B1 VL with Y54S, F60W
# notes: Light label printed 54560W101V, read as 54S60W101V; also called 54I59D / 54560W101V
# B12: 28V31S54V59D / 101V (antibody, V domains shown)
# VH: B1 VH with S28V
# VL: B1 VL
# notes: as for B1
# B13: 31S54I59D / 32W60W101V (antibody, V domains shown)
# VH: B1 VH with S28T, V54I
# VL: B1 VL with S32W, F60W
# notes: as for B1
# B14: 28Q31S54V59D / 101V (antibody, V domains shown)
# VH: B1 VH with S28Q
# VL: B1 VL
# notes: as for B1
# B15: 48V54V59D / 32W60W101V (antibody, V domains shown)
# VH: B1 VH with S28T, S31D, I48V
# VL: B1 VL with S32W, F60W
# notes: as for B1
# B16: 31S54V59D / 101V (antibody, V domains shown)
# VH: B1 VH with S28T
# VL: B1 VL
# notes: as for B1
# How the values were obtained:
# [1] = molecular target: T1, serum purified human Complement Factor D (human, UniProt P00746 26-253); experiment: SPR Biacore, antibody on protein A chip, single cycle kinetics, 25 C;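 further: antibodies captured to roughly 70 RU on the protein A surface in HBS-EP+ running buffer, with kinetic constants derived by BIAevaluation fitting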
# T1 construct: Serum purified protein flowed over the captured antibodies; also called CFD; human CFD
# Method: (§1) Antibodies were diluted to 0.5 ug/ml in HBS-EP+ buffer and captured on a protein A chip for 25 seconds to reach approximately 70 resonance units. […] Binding kinetic information was obtained by the BIAevaluation software (GE).
# [2] = molecular target: T1, serum purified human Complement Factor D; experiment: SPR Biacore, antibody on protein A chip, single cycle kinetics, 37 C;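 further: antibodies captured on the protein A surface to roughly 70 RU in HBS-EP+ buffer, with rate and affinity constants fitted using BIAevaluation software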
# Method: as §1
# T1 sequence (P00746 26-253): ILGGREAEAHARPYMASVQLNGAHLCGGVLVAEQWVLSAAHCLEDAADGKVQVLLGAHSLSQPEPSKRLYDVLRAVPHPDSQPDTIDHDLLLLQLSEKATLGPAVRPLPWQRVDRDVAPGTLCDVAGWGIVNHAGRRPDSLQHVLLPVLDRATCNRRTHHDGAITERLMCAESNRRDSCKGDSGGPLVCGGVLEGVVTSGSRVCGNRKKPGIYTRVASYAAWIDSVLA
Binder,Kd [1],koff [1],kon [1],Kd [2],koff [2] [s⁻¹],kon [2]
B1,0.0217 nM,0.000166 s⁻¹,7.64e+06 M⁻¹ s⁻¹,0.0727 nM,0.000918,1.26e+07 M⁻¹ s⁻¹
B2,0.0158 nM,8.84e-05 s⁻¹,5.58e+06 M⁻¹ s⁻¹,0.0227 nM,0.000293,1.29e+07 M⁻¹ s⁻¹
B3,0.00607 nM,4.79e-05 s⁻¹,7.88e+06 M⁻¹ s⁻¹,–,–,–
B4,–,3.5e-05 s⁻¹ and 8.32e-05 s⁻¹ and 6.85e-05 s⁻¹,7.57e+06 M⁻¹ s⁻¹ and 4.91e+06 M⁻¹ s⁻¹ and 5.83e+06 M⁻¹ s⁻¹,0.0131 nM and 0.00972 nM and 0.00501 nM,–,1.5e+07 M⁻¹ s⁻¹ and 6.86e+06 M⁻¹ s⁻¹ and 1.17e+07 M⁻¹ s⁻¹
B5,0.0211 nM,0.000136 s⁻¹,6.45e+06 M⁻¹ s⁻¹,0.0217 nM,0.000279,1.29e+07 M⁻¹ s⁻¹
B6,0.00948 nM,7.29e-05 s⁻¹,7.69e+06 M⁻¹ s⁻¹,0.011 nM,0.000155,1.41e+07 M⁻¹ s⁻¹
B7,0.00689 nM,8.25e-05 s⁻¹,1.2e+07 M⁻¹ s⁻¹,0.00931 nM,0.000222,2.38e+07 M⁻¹ s⁻¹
B8,0.0172 nM,5.69e-05 s⁻¹,3.31e+06 M⁻¹ s⁻¹,0.0312 nM,0.000208,6.67e+06 M⁻¹ s⁻¹
B9,0.0157 nM,6.01e-05 s⁻¹,3.83e+06 M⁻¹ s⁻¹,0.0288 nM,0.000224,7.79e+06 M⁻¹ s⁻¹
B10,0.0121 nM,6.67e-05 s⁻¹,5.53e+06 M⁻¹ s⁻¹,0.0318 nM,0.000329,1.04e+07 M⁻¹ s⁻¹
B11,0.00985 nM,7.08e-05 s⁻¹,7.19e+06 M⁻¹ s⁻¹,0.0119 nM,0.000148,1.24e+07 M⁻¹ s⁻¹
B12,0.00601 nM,4.76e-05 s⁻¹,7.91e+06 M⁻¹ s⁻¹,0.051 nM,0.00085,1.66e+07 M⁻¹ s⁻¹
B13,0.0165 nM,6.3e-05 s⁻¹,3.83e+06 M⁻¹ s⁻¹,0.0343 nM,0.000225,6.55e+06 M⁻¹ s⁻¹
B14,0.023 nM,0.000164 s⁻¹,7.15e+06 M⁻¹ s⁻¹,0.0757 nM,0.00103,1.35e+07 M⁻¹ s⁻¹
B15,0.0159 nM,9.5e-05 s⁻¹,5.96e+06 M⁻¹ s⁻¹,0.0212 nM,0.000278,1.31e+07 M⁻¹ s⁻¹
B16,0.0188 nM and 0.0176 nM,0.000131 s⁻¹ and 0.000101 s⁻¹,6.95e+06 M⁻¹ s⁻¹ and 5.71e+06 M⁻¹ s⁻¹,0.0411 nM,0.000373,9.08e+06 M⁻¹ s⁻¹

# From patent US20180334496A1 (KODIAK SCIENCES, published 2018)
